Data reported in publication PMC9352680, “A comprehensive thermodynamic model for RNA binding by the Saccharomyces cerevisiae Pumilio protein PUF4”.
Positions count from the first letter of the chain named. In names and notes the source's numbering stands.

B1: Ic_S1_P4E.1_K4.1_C4.1_H4.1_A4.1_[T5C]_F4.1_T4.1 (ssRNA)
RNA: UCUCUUUGUACAUUAUCUCUU
B2: Ic_S1_P4E.1_K4.1_C4.1_H4.1_A4.1_[A6T]_F4.1_[A9G]_T4.1 (ssRNA)
RNA: UCUCUUUGUAUUUUGUCUCUU
B3: Ic_S4_P5E.1_K5.1_C5.1_H5.1_A5.1_[A7G]_F5.1_[T9C]_[A10T]_T5.1 (ssRNA)
RNA: UUUGACAACUGAUCGUUCUUUCUUGUAUUGUCUUUCUUUCUCGAUCAGUUGUCUUU
B4: Ic_S4_P5E.1_K5.1_C5.1_H5.1_A5.1_[T6C]_[A7G]_F5.1_[T8C]_[T9C]_[A10G]_T5.1 (ssRNA)
RNA: B3 RNA with U29C, U31C, U33G
B5: Ic_S4_P5E.1_K5.1_C5.1_H5.1_A5.1_[T5C]_[T6C]_F5.1_[T8G]_[A10G]_T5.1 (ssRNA)
RNA: B3 RNA with U28C, U29C, G30A, U31G, C32U, U33G
B6: Ic_S4_P5E.1_K5.1_C5.1_H5.1_A5.1_[T5A]_[T6A]_[A7C]_F5.1_[T9A]_[A10T]_T5.1 (ssRNA)
RNA: B3 RNA with U28A, U29A, G30C, C32A
B7: Ic_S4_P5E.1_K5.1_C5.1_H5.1_A5.1_[T5A]_[T6C]_[A7T]_F5.1_[T8C]_[T9C]_[A10G]_T5.1 (ssRNA)
RNA: B3 RNA with U28A, U29C, G30U, U31C, U33G
B8: Ic_S4_P5E.1_K5.1_C5.1_H5.1_A5.1_[T5C]_[T6A]_[A7T]_F5.1_[T8G]_[A10T]_T5.1 (ssRNA)
RNA: B3 RNA with U28C, U29A, G30U, U31G, C32U
B9: Ic_S4_P5E.1_K5.1_C5.1_H5.1_A5.1_[T5G]_[A7C]_F5.1_[T8G]_T5.1 (ssRNA)
RNA: B3 RNA with U28G, G30C, U31G, C32U, U33A
B10: Ic_S4_P5E.1_K5.1_C5.1_H5.1_A5.1_[T6G]_[A7C]_F5.1_[T8A]_T5.1 (ssRNA)
RNA: B3 RNA with U29G, G30C, U31A, C32U, U33A
B11: Ic_S4_P5E.1_K5.1_C5.1_H5.1_A5.1_[T5C]_[T6C]_F5.1_[T8A]_[T9A]_[A10C]_T5.1 (ssRNA)
RNA: B3 RNA with U28C, U29C, G30A, U31A, C32A, U33C
B12: Ic_S4_P5E.1_K5.1_C5.1_H5.1_A5.1_[T5A]_[T6C]_[A7C]_F5.1_[T9C]_[A10G]_T5.1 (ssRNA)
RNA: B3 RNA with U28A, U29C, G30C, U33G
B13: Ic_S4_P5E.1_K5.1_C5.1_H5.1_A5.1_[T6A]_[A7C]_F5.1_[T8C]_[T9C]_[A10T]_T5.1 (ssRNA)
RNA: B3 RNA with U29A, G30C, U31C
B14: Ic_S4_P5E.1_K5.1_C5.1_H5.1_A5.1_[T5A]_[T6C]_[A7G]_F5.1_[T9A]_[A10G]_T5.1 (ssRNA)
RNA: B3 RNA with U28A, U29C, C32A, U33G
B15: Ic_S4_P5E.1_K5.1_C5.1_H5.1_A5.1_[T6A]_[A7T]_F5.1_[T8A]_[T9A]_T5.1 (ssRNA)
RNA: B3 RNA with U29A, G30U, U31A, C32A, U33A
B16: Ic_S4_P5E.1_K5.1_C5.1_H5.1_A5.1_[A7T]_F5.1_[T8G]_[T9C]_[A10T]_T5.1 (ssRNA)
RNA: B3 RNA with G30U, U31G
B17: Ic_S4_P5E.1_K5.1_C5.1_H5.1_A5.1_[A7T]_F5.1_[T8C]_[T9A]_T5.1 (ssRNA)
RNA: B3 RNA with G30U, U31C, C32A, U33A
B18: Ic_S4_P5E.1_K5.1_C5.1_H5.1_A5.1_[T5A]_[T6A]_[A7C]_F5.1_[T9A]_T5.1 (ssRNA)
RNA: B3 RNA with U28A, U29A, G30C, C32A, U33A
B19: Ic_S4_P5E.1_K5.1_C5.1_H5.1_A5.1_[T5A]_[T6C]_[A7T]_F5.1_[T8C]_[T9A]_[A10T]_T5.1 (ssRNA)
RNA: B3 RNA with U28A, U29C, G30U, U31C, C32A
B20: Ic_S4_P5E.1_K5.1_C5.1_H5.1_A5.1_[T6C]_[A7T]_F5.1_[T8A]_[T9G]_[A10C]_T5.1 (ssRNA)
RNA: B3 RNA with U29C, G30U, U31A, C32G, U33C
B21: Ic_S4_P5E.1_K5.1_C5.1_H5.1_A5.1_[T5C]_[T6G]_[A7T]_F5.1_[T8C]_[T9A]_[A10T]_T5.1 (ssRNA)
RNA: B3 RNA with U28C, U29G, G30U, U31C, C32A
B22: Ic_S4_P5E.1_K5.1_C5.1_H5.1_A5.1_[T5C]_[T6C]_[A7C]_F5.1_[T9A]_[A10G]_T5.1 (ssRNA)
RNA: B3 RNA with U28C, U29C, G30C, C32A, U33G
B23: Ic_S4_P5E.1_K5.1_C5.1_H5.1_A5.1_[T6A]_[A7C]_F5.1_[T8C]_[T9A]_[A10T]_T5.1 (ssRNA)
RNA: B3 RNA with U29A, G30C, U31C, C32A
B24: Ic_S4_P5E.1_K5.1_C5.1_H5.1_A5.1_[A7T]_F5.1_[T8C]_[T9G]_[A10T]_T5.1 (ssRNA)
RNA: B3 RNA with G30U, U31C, C32G
B25: Ic_S4_P5E.1_K5.1_C5.1_H5.1_A5.1_[T5A]_[T6A]_[A7T]_F5.1_[A10T]_T5.1 (ssRNA)
RNA: B3 RNA with U28A, U29A, G30U, C32U
B26: Ic_S4_P5E.1_K5.1_C5.1_H5.1_A5.1_[T6G]_[A7C]_F5.1_[T8G]_[T9C]_[A10T]_T5.1 (ssRNA)
RNA: B3 RNA with U29G, G30C, U31G
B27: Ic_S4_P5E.1_K5.1_C5.1_H5.1_A5.1_[T5C]_[A7T]_F5.1_[T8C]_T5.1 (ssRNA)
RNA: B3 RNA with U28C, G30U, U31C, C32U, U33A
B28: Ic_S4_P5E.1_K5.1_C5.1_H5.1_A5.1_[T5A]_[A7T]_F5.1_[T9C]_[A10T]_T5.1 (ssRNA)
RNA: B3 RNA with U28A, G30U
B29: Ic_S4_P5E.1_K5.1_C5.1_H5.1_A5.1_[T5G]_[A7C]_F5.1_[T8G]_[A10G]_T5.1 (ssRNA)
RNA: B3 RNA with U28G, G30C, U31G, C32U, U33G

Target: T1, PUF4 RNA-binding domain (Saccharomyces cerevisiae, UniProt P25339 537-888)
T1 sequence: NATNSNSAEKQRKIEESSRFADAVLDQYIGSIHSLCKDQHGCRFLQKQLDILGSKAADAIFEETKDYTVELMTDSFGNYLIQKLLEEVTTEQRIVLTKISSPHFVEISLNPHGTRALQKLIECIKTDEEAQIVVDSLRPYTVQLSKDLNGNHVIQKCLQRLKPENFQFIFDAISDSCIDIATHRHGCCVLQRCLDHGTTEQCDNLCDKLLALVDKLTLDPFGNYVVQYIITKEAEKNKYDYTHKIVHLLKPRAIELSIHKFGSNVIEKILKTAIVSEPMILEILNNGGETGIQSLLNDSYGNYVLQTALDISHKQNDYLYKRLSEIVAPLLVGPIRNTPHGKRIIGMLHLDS
Experiment: Mg; RNA-MaP; 20 mM Na-HEPES pH 7.4, 30 mM KOAc, 0.75 mM MgCl2, 0.1% Tween-20, 5% glycerol, 0.1 mg/mL BSA, 2 mM DTT; 25 C; 0.0125-409.6 nM protein
Details: tags: N-His6-TEV cleaved; C-SNAP kept, Cy3B-labelled; label: tethered on chip by stalled RNA polymerase

Point of comparison: B19, Kd 325 nM. Against it:
- B1 — 540-fold lower, 0.601 nM
- B2 — 21-fold lower, 15.2 nM
- B3 — 2.4-fold lower, 134 nM
- B4 — 5.3-fold higher, 1730 nM
- B5 — 2.6-fold lower, 124 nM
- B6 — 130-fold lower, 2.41 nM
- B7 — higher, > 2300 nM
- B8 — 48-fold lower, 6.77 nM
- B9 — 12-fold lower, 26.3 nM
- B10 — 23-fold lower, 14.1 nM
- B11 — 2.1-fold lower, 158 nM
- B12 — 1.9-fold higher, 610 nM
- B13 — 9-fold lower, 36.1 nM
- B14 — 2.9-fold lower, 114 nM
- B15 — 84-fold lower, 3.86 nM
- B16 — 4-fold lower, 80.4 nM
- B17 — within 1.5-fold, 452 nM
- B18 — 74-fold lower, 4.37 nM
- B20 — 6.9-fold lower, 47.4 nM
- B21 — 3.3-fold lower, 98.8 nM
- B22 — 52-fold lower, 6.26 nM
- B23 — 21-fold lower, 15.4 nM
- B24 — 5.2-fold lower, 62.1 nM
- B25 — 19-fold lower, 16.9 nM
- B26 — 1.7-fold higher, 542 nM
- B27 — 130-fold lower, 2.44 nM
- B28 — 9.9-fold lower, 32.8 nM
- B29 — within 1.5-fold, 486 nM
